Consider 4 substances from article doi:10.1101/525329.

As usually defined, the Kd is a measure of binding affinity in units of concentration. Broadly, the stoichiometry N is a count of units in the complex or per binding partner.

Like-named read-outs stand apart in the source and are kept apart here.

Common to all, as to test: co-sedimentation
The target of assay [1] is paclitaxel-stabilized microtubules (bovine brain tubulin) (bovine) (UniProt Q6B856).
Assay [2] shares this target. This is another data set of the same source.
For assay [3] the target is unchanged. This is another data set of the same source.
The target is the same in assay [4]. The source holds these as a separate data set.
The target is the same in assay [5]. The source holds these as a separate data set.

Chain of paclitaxel-stabilized microtubules (bovine brain tubulin) (bovine) (Q6B856 whole entry, looked up): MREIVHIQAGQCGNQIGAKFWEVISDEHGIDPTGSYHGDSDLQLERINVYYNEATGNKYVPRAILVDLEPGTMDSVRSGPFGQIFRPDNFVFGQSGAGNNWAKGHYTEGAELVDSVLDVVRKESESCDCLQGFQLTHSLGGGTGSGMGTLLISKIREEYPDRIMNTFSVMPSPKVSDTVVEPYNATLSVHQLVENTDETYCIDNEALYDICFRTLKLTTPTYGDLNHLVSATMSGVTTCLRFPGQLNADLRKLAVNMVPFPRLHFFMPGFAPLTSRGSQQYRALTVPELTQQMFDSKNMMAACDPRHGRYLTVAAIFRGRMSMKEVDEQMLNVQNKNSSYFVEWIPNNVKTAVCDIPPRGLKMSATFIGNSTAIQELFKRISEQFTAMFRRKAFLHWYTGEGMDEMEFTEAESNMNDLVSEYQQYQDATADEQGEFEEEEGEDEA

For the substance “Cin8-EL8 (tagless): monomeric Cin8 motor with the loop-8 insert of Eg5 (domain or fragment)”, the Kd came out at 3 µM in assay [1], 2.9 µM in assay [2] and 0.1 µM in assay [3]. Moreover, in assay [3], the stoichiometry N came to 1.4. In assay [3], this substance yielded a stoichiometry N (motor bound per tubulin dimer) of 1.

“Eg5-CL8-MBP (MBP-His6-TEV-Eg5-CL8) (from UniProt P27895 261-359) (domain or fragment)” came in with a Kd in assay [4] of 0.1 µM. In assay [3], the Kd came to 0.1 µM and the stoichiometry N (motor per tubulin dimer) was 1.

Consider “Eg5-KL8: monomeric Eg5 motor domain with the loop-8 insert of Kip1 (domain or fragment)”, for which the equilibrium dissociation constant (Kd) worked out at 0.1 µM in assay [3] and 0.44 µM in assay [5]. Moreover, in assay [3], the stoichiometry N is 1.3.

In the case of “wild type monomeric Cin8 motor domain with thioredoxin tag (Cin8-trx) (domain or fragment)”, in assay [3], the Kd is 0.007 µM and the stoichiometry N was 2.2.
